According to the supplement of paper PMC10567573:

B1: VPS39 (parent)
chain: TTLLKCYLHTNVALVAPLLRLENN
B2: RAD54B (parent)
chain: YVQEKRDGLKRRQQLEEELLRAKI

Variants of: B1
Assay: protein stability index of a GFP-peptide fusion (GPS, HEK-293T) (PSI 1-6); higher = more stable
Settings: c terminus: a fixed tail appended
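Note: lentivirally expressed fusions sorted by FACS into six bins by GFP to DsRed ratio, PSI derived from sequencing read proportions per bin multiplied by bin number.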

| Variant | protein stability index |
| --- | --- |
| N24I | 2.02 |
| N24K | 2.08 |
| N24V | 1.5 |
| N24C | 3.2 |
| N24H | 3.11 |
| N24D | 2.7 |
| N24L | 3.19 |
| N24Q | 3.12 |
| P17R | 1.38 |
| P17M | 1.17 |
| P17L | 2.13 |
| P17E | 4.79 |
| V15D | 1.31 |
| V15R | 1.85 |
| V15P | 3.16 |
| V15C | 1.65 |
| V15I | 2.17 |
| V15N | 2.07 |
| V15F | 2.62 |
| V15E | 1.35 |
| V15W | 2.17 |
| V15H | 2.17 |
| V15T | 2.11 |
| R20I | 3.11 |

| Variant | protein stability index |
| --- | --- |
| R20K | 3.52 |
| R20T | 3.38 |
| R20V | 2.63 |
| R20G | 2.65 |
| R20D | 2.23 |
| R20M | 1.5 |
| R20E | 1.83 |
| R20Y | 3.2 |
| R20P | 3.33 |
| R20W | 2.11 |
| L18F | 2.06 |
| L18E | 1.55 |
| L18Y | 2.16 |
| L18T | 2.51 |
| L18K | 2.08 |
| L18P | 2.27 |
| L18M | 3.28 |
| E22R | 2.64 |
| E22V | 1.69 |
| E22K | 1.79 |
| E22D | 2.71 |
| E22L | 2.73 |
| E22H | 2.49 |
| E22S | 2.82 |

| Variant | protein stability index |
| --- | --- |
| E22A | 1.66 |
| E22I | 1.99 |
| E22N | 2.13 |
| E22M | 2.31 |
| E22W | 1.4 |
| E22C | 1.92 |
| N23H | 2.29 |
| N23Q | 3.88 |
| N23A | 2.22 |
| N23R | 2.37 |
| N23M | 2.81 |
| N23K | 2.27 |
| N23I | 2.67 |
| N23F | 2.11 |
| N23V | 2.67 |
| N23W | 1.88 |
| N23E | 2.49 |
| N23L | 2.85 |
| N23C | 2.8 |
| N23T | 2.32 |
| N23Y | 2.99 |
| L19C | 1.35 |
| L19P | 1.52 |
| L19V | 2.79 |

| Variant | protein stability index |
| --- | --- |
| L19Q | 1.46 |
| L19H | 1.7 |
| L19T | 2.11 |
| L19W | 2.61 |
| L19D | 2.11 |
| L19E | 2.02 |
| L19G | 1.97 |
| L21C | 3.59 |
| L21H | 1.51 |
| L21F | 3.04 |
| L21N | 3.2 |
| L21T | 2.9 |
| L21I | 2.16 |
| L21W | 2.05 |
| L21D | 1.59 |
| L21E | 2.09 |
| L21S | 1.63 |
| L21P | 2.73 |
| L21K | 1.74 |
| L21Q | 2.14 |
| L21G | 1.6 |
| L21M | 3.38 |
| L21Y | 1.84 |
| A13W | 3.55 |

| Variant | protein stability index |
| --- | --- |
| A16G | 2.87 |
| A16R | 2.05 |
| A16N | 2.16 |
| A16S | 5.08 |
| A16M | 2.02 |
| A16H | 3.78 |
| A16P | 3.28 |
| A16D | 3.39 |
| A16W | 1.72 |
| A16E | 2.57 |
| A16T | 2.94 |
| L14T | 2.5 |
| L14M | 2.27 |
| L14A | 2.83 |
| L14F | 1.55 |
| L14H | 3.13 |
| L14I | 3.28 |
| L14V | 2.25 |
| L14N | 2.16 |
| L14Q | 1.68 |
| L14P | 1.9 |
| L14E | 1.57 |
| L14Y | 3.67 |
| L14D | 1.5 |

Variants of: B2
Assay: as above
Settings: c terminus: a fixed tail appended

| Variant | protein stability index |
| --- | --- |
| R12E | 2.34 |
| R12C | 2.25 |
| R12D | 3.23 |
| R12A | 1.85 |
| R12F | 2.28 |
| Q3L | 1.75 |
| Q3V | 2.48 |
| Q3N | 2.05 |
| Q3D | 2.97 |
| Q3M | 1.64 |
| Q3H | 1.91 |
| Q3G | 1.9 |
| Q3I | 1.77 |
| Q3P | 2.43 |
| Q3Y | 1.8 |
| Q3C | 2.01 |
| Q3E | 2.35 |
| Q3W | 2.43 |
| Q3F | 1.95 |
| Q3K | 1.81 |
| Q3S | 1.75 |
| Q3T | 2.94 |
| Q3R | 1.83 |
| Q3A | 1.98 |

| Variant | protein stability index |
| --- | --- |
| D7E | 1.96 |
| D7K | 2.16 |
| D7T | 3.69 |
| D7H | 1.67 |
| D7L | 1.46 |
| D7F | 1.54 |
| D7R | 2.37 |
| D7S | 2.37 |
| D7Y | 1.39 |
| D7G | 1.88 |
| D7I | 2.13 |
| D7W | 2.14 |
| D7P | 1.88 |
| D7C | 3.13 |
| D7N | 1.81 |
| D7Q | 2.21 |
| D7V | 1.47 |
| D7A | 1.87 |
| D7M | 1.79 |
| K10E | 2.58 |
| K10Y | 1.77 |
| K10P | 2.55 |
| K10W | 1.47 |
| K10Q | 2.5 |

| Variant | protein stability index |
| --- | --- |
| K10F | 1.6 |
| K10R | 1.98 |
| K10V | 2.9 |
| K10M | 2.46 |
| K10A | 2.04 |
| K10H | 2.4 |
| K10L | 2.28 |
| K10C | 1.83 |
| K10G | 2.28 |
| K10S | 2.49 |
| K10D | 2.04 |
| K10T | 2.5 |
| K10I | 1.97 |
| K10N | 2.41 |
| K5R | 1.86 |
| K5E | 3.57 |
| K5H | 2.26 |
| K5T | 1.74 |
| K5V | 2.1 |
| K5F | 2.49 |
| K5W | 2.11 |
| K5L | 1.96 |
| K5Q | 2.48 |
| K5I | 2.77 |

| Variant | protein stability index |
| --- | --- |
| K5D | 3.46 |
| K5S | 2.56 |
| K5P | 2.05 |
| K5C | 2.16 |
| K5A | 1.96 |
| K5Y | 2.4 |
| K5G | 1.91 |
| K5M | 2.25 |
| K5N | 2.19 |
| Y1V | 2.81 |
| Y1P | 3.89 |
| Y1T | 3.59 |
| Y1I | 3.14 |
| Y1W | 3.92 |
| Y1A | 3.7 |
| Y1F | 1.79 |
| Y1G | 4.19 |
| Y1E | 3.68 |
| Y1N | 3.74 |
| Y1L | 3.56 |
| Y1R | 3.77 |
| Y1K | 3.74 |
| Y1C | 3.52 |
| Y1Q | 3.42 |

| Variant | protein stability index |
| --- | --- |
| Y1D | 4.4 |
| Y1M | 3.95 |
| Y1S | 4.37 |
| Y1H | 3.91 |
| R11Q | 2.32 |
| R11T | 2.46 |
| R11A | 2.82 |
| R11P | 2.25 |
| R11N | 2.67 |
| R11M | 2.07 |
| R11C | 1.81 |
| R11V | 2.13 |
| R11I | 2.86 |
| R11E | 3.22 |
| R11F | 1.69 |
| R11Y | 1.97 |
| R11S | 2.36 |
| R11K | 2.44 |
| R11W | 2.46 |
| R11D | 2.62 |
| R11H | 2.93 |
| R11L | 2.23 |
| R11G | 2 |
| R6E | 3.26 |

| Variant | protein stability index |
| --- | --- |
| R6N | 2.31 |
| R6Y | 2.18 |
| R6V | 2.23 |
| R6Q | 2.39 |
| R6K | 1.96 |
| R6A | 2.26 |
| R6H | 2.1 |
| R6P | 1.94 |
| R6W | 2.07 |
| R6C | 2.32 |
| R6T | 2.49 |
| R6M | 2.12 |
| R6L | 2.46 |
| R6G | 2.39 |
| R6S | 1.75 |
| R6I | 2.66 |
| R6F | 2.14 |
| R6D | 2.87 |
| L9E | 2.85 |
| L9K | 1.98 |
| L9T | 1.83 |
| L9H | 2.1 |
| L9M | 2.02 |
| L9D | 2.92 |

| Variant | protein stability index |
| --- | --- |
| L9C | 2.06 |
| L9W | 1.81 |
| L9I | 2.25 |
| L9N | 2.35 |
| L9A | 2.21 |
| L9Y | 1.91 |
| L9R | 1.79 |
| L9P | 2.36 |
| L9F | 2.02 |
| L9V | 1.82 |
| L9S | 1.99 |
| L9G | 2.14 |
| L9Q | 2.26 |
| G8M | 2.29 |
| G8P | 2.12 |
| G8E | 2.59 |
| G8K | 2.33 |
| G8I | 1.99 |
| G8V | 2.11 |
| G8Y | 2.12 |
| G8A | 1.82 |
| G8C | 1.98 |
| G8H | 1.92 |
| G8N | 1.49 |

| Variant | protein stability index |
| --- | --- |
| G8W | 3.6 |
| G8T | 1.74 |
| G8L | 2.45 |
| G8D | 2.27 |
| G8F | 2.27 |
| G8Q | 2.01 |
| G8R | 2.28 |
| G8S | 1.99 |
| V2T | 3.75 |
| V2Y | 3.56 |
| V2L | 3.41 |
| V2M | 3.65 |
| V2P | 3.2 |
| V2H | 2.55 |
| V2D | 4.46 |
| V2C | 3.08 |
| V2S | 4.01 |
| V2F | 3.62 |
| V2G | 4.12 |
| V2N | 3.73 |
| V2K | 3.82 |
| V2A | 3.72 |
| V2I | 2.84 |
| V2E | 4.64 |

| Variant | protein stability index |
| --- | --- |
| V2Q | 3.31 |
| V2R | 3.82 |
| V2W | 3.35 |
| E4R | 2.31 |
| E4T | 1.49 |
| E4L | 1.67 |
| E4C | 2.57 |
| E4H | 1.6 |
| E4G | 2.13 |
| E4M | 1.84 |
| E4N | 1.89 |
| E4Y | 2.28 |
| E4V | 1.6 |
| E4Q | 1.68 |
| E4W | 1.62 |
| E4D | 1.68 |
| E4K | 2.28 |
| E4I | 1.35 |
| E4P | 2.23 |
| E4F | 1.89 |
| E4S | 2.9 |
| E4A | 1.83 |
